Experimental findings from EP2074145B1 are described below.

The target in assay [1] is T1, peptide 13 (aa 13-21 of Aβ).
T1 sequence (peptide, biotinylated (site not stated)): HHQKLVFFA
The assay is described as follows: ELISA with biotinylated peptide Amyloid beta 13-21. On the technique in general: ELISA stands for enzyme-linked immunosorbent assay.

For assay [2] the target is unchanged. The assay can be described thus: ELISA with biotinylated peptides (Mimotopes protocol).
Assay [3] addresses biotinylated complete Aβ1-42 peptide (Bachem) (UniProt P05067). The assay can be described thus: ELISA with biotinylated complete Aβ1-42 peptide.

Chain of biotinylated complete Aβ1-42 peptide (Bachem) (P05067 672-713 limits assumed): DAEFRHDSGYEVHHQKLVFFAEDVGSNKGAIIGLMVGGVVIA

Consider “humanized anti-human amyloid beta monoclonal antibody hC2”, for which the results for the O.D in assay [1] and in assay [3] were 1.23 O.D and 0.9 O.D, respectively. This substance returned a percent higher affinity than to the whole Aβ1-42 protein in assay [2] of 36%.
